Measurements: patent US20240132626A1 (Eli Lilly, published 2024)

Legend:
Assay in all cases: SPR, captured via anti-human kappa, soluble ECD injected
[1] = target: T1, Soluble human EGFR ECD protein (human, UniProt P00533 25-645)
T1 construct: extracellular domain; His-tagged

[2] = target: T2, Soluble human HER-2 extracellular domain (ECD) protein (human, UniProt P04626 23-652)
T2 construct: extracellular domain; His-tagged

[3] = target: T3, Soluble human cMet extracellular domain (ECD) protein (human, UniProt P08581 25-932)
T3 construct: extracellular domain; His-tagged
T3 sequence (P08581 25-932): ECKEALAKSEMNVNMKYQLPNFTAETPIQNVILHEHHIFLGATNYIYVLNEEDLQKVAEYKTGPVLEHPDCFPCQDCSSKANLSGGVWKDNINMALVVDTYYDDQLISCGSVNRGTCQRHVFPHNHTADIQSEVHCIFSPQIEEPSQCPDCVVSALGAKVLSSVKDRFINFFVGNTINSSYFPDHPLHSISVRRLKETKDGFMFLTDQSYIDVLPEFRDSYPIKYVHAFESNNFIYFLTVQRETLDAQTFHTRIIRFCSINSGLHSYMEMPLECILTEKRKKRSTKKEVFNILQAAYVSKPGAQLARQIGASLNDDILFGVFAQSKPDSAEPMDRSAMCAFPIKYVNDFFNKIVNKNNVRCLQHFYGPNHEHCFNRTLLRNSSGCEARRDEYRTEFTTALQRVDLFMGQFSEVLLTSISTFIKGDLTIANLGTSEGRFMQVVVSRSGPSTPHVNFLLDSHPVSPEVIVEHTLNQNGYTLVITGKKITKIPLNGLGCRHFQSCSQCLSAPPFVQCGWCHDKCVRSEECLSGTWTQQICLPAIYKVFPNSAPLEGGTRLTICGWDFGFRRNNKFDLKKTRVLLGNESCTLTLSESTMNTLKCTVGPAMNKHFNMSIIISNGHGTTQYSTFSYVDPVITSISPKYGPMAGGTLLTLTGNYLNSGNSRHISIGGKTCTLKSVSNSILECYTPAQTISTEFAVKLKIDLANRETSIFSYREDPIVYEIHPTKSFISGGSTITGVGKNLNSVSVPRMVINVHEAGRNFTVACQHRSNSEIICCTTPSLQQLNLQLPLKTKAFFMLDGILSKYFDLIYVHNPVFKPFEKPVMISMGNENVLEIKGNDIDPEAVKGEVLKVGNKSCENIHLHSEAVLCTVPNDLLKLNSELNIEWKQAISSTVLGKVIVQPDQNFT

Row | Kd [1] | koff [1] | kon [1] | Kd [2] | koff [2] | kon [2] | Kd [3] | koff [3] | kon [3] | Binder
1 | 13 nM | 0.009 s⁻¹ | 720000 M⁻¹ s⁻¹ | 0.9 nM | 0.00024 s⁻¹ | 260000 M⁻¹ s⁻¹ | 0.36 nM | 0.00016 s⁻¹ | 440000 M⁻¹ s⁻¹ | HER-2 X EGFR X cMet TsAb_N_L (other, Trispecific IgG-Fab antibody; the anti-cMet Fab is fused N-terminally through its light chain) heavy 1: DIQMTQSPSSLSASVGDRVTITCKSSQSLLYTSSQKNYLAWYQQKPGDAPKLLIYWASTRESGVPSRFSGSGSGTDFTLTISSLQPEDFATYYCQQYYAYPWTFGQGTKVEIKRTVAAPSVFIFPPSDKQLKSGTARVVCLLNNFYPREAKVQWKVDNALQSGNSQESVTEQDSKDSTYSLISTLTLSKADYEKHKVYACEVTHQGLSSPVTKSFNRGECGGGGSGGGGSGGGGSGGGGSGGGGSQVQLVQSGAEVKKPGASVKVSCKASGYTFTSHWMHWVRYAPGQGLEWIGEFNPSNGRTNYNEKFKSKATMTVDTSTNTAYMELSSLRSEDTAVYYCASRDYDYDGRYFDYWGQGTLVTVSSASTKGPSVFPLAPCSKSTSGGTAALGCLVKDYFPEPVTVSWNSGALTSGVHTFPAVLQSSGLYSLSSVVTVPSSSLGTQTYICNVNHKPSNTKVDKKVEPDSGDKTHTCPPCPAPEAAGGPSVFLFPPKPKDTLMISRTPEVTCVVVDVSHEDPEVKFNWYVDGVEVHNAKTKPREEQYQSTYRVVSVLTVLHQDWLNGKEYKCKVSNKALPAPIEKTISKAKGQPREPQVYTLPPSRGDMTKNQVQLTCLVKGFYPSDIAVEWESNGQPENNYKTTPPVLDSDGSFFLASKLTVDKSRWQQGNVFSCSVMHEALHNHYTQKSLSLSPG light 1: DIQMTQSPSSLSASVGDRVTITCSASSSVTYMYWYQRKPGKAPKLLIYDTSNLASGVPSRFSGSGSGTDYTFTISSLQPEDIATYYCQQWSSHIFTFGQGTKVEIKRTVAAPSVFIFPPSKEQLKSGTASVVCLLNNFYPREAKVQWKVDNALQSGNSQESVTEQDSKDSTYSLSSTLTLSKADYEKHKVYACEVTHQGLSSPVTKSFNRGEC heavy 2: EVQLVESGGGLVQPGGSLRLSCAASGFTFTDYTMDWVRKAPGKGLEWVADVNPNSGGSIYNQEFKGRFTLSVDRSKNTLYLQMNSLRAEDTAVYYCARNLGPSFYFDYWGQGTLVTVSSASTKGPSVFPLAPSSKSTSGGTAALGCLVKDYFPEPVTVSWNSGALTSGVATGPAVLQSSGLYSLSSVVTVPSSSLGTQTYICNVNHKPSNTKVDKKVEPKSCDKTHTCPPCPAPEAAGGPSVFLFPPKPKDTLMISRTPEVTCVVVDVSHEDPEVKFNWYVDGVEVHNAKTKPREEQYQSTYRVVSVLTVLHQDWLNGKEYKCKVSNKALPAPIEKTISKAKGQPREPQVSTLPPSREEMTKNQVSLMCLVYGFYPSDIAVEWESNGQPENNYKTTPPVLDSDGSFFLYSVLTVDKSRWQQGNVFSCSVMHEALHNHYTQKSLSLSPG light 2: RIQMTQSPSSLSASVGDRVTITCKASQDVSIGVAWYQDKPGKAPKLLIYSASYRYTGVPSRFSGSGSGTDFTLTISSLQPEDFATYYCQQYYIYPYTFGQGTKVEIKGQPKAAPSVTLFPPSSEELQANKATLVCYISDFYPGAVTVAWKADSSPVKAGVETTTPSKQSNNKYAAWSYLSLTPEQWKSHRSYSCQVTHEGSTVEKTVAPTEC EVQLVESGGGLVQPGGSLRLSCAASGYTFTSYWLHWVRQAPGKGLEWVGMIDPSNSDTRFNPNFKDRFTISADTSKNTAYLQMNSLRAEDTAVYYCATYRSYVTPLDYWGRGTLVTVSSASTKGPSVFPLAPSSKSTSGGTAALGCLVADYFPEPVTVSWNSGALTSGVHTFPAVLQSSGLYSLSSVVTVPSSSLGTQTYICNVNHKPSNTKVDERVEPKSC
2 | 10 nM | 0.0058 s⁻¹ | 560000 M⁻¹ s⁻¹ | 0.7 nM | 0.00021 s⁻¹ | 300000 M⁻¹ s⁻¹ | 0.54 nM | 0.00014 s⁻¹ | 260000 M⁻¹ s⁻¹ | HER-2 X EGFR X cMet TsAb_HHL (other, Tandem Fab trispecific antibody without Fc) heavy: EVQLVESGGGLVQPGGSLRLSCAASGFTFTDYTMDWVRKAPGKGLEWVADVNPNSGGSIYNQEFKGRFTLSVDRSKNTLYLQMNSLRAEDTAVYYCARNLGPSFYFDYWGQGTLVTVSSASTKGPSVFPLAPSSKSTSGGTAALGCLVKDYFPEPVTVSWNSGALTSGVATGPAVLQSSGLYSLSSVVTVPSSSLGTQTYICNVNHKPSNTKVDKKVEPKSCGGGGSGGGGSGGGGSQVQLVQSGAEVKKPGASVKVSCKASGYTFTSHWMHWVRYAPGQGLEWIGEFNPSNGRTNYNEKFKSKATMTVDTSTNTAYMELSSLRSEDTAVYYCASRDYDYDGRYFDYWGQGTLVTVSSASTKGPSVFPLAPCSKSTSGGTAALGCLVKDYFPEPVTVSWNSGALTSGVHTFPAVLQSSGLYSLSSVVTVPSSSLGTQTYICNVNHKPSNTKVDKKVEPDSGGGGGSGGGGSGGGGSDIQMTQSPSSLSASVGDRVTITCKSSQSLLYTSSQKNYLAWYQQKPGDAPKLLIYWASTRESGVPSRFSGSGSGTDFTLTISSLQPEDFATYYCQQYYAYPWTFGQGTKVEIKRTVAAPSVFIFPPSDKQLKSGTARVVCLLNNFYPREAKVQWKVDNALQSGNSQESVTEQDSKDSTYSLISTLTLSKADYEKHKVYACEVTHQGLSSPVTKSFNRGECHHHHHHHH light 1: RIQMTQSPSSLSASVGDRVTITCKASQDVSIGVAWYQDKPGKAPKLLIYSASYRYTGVPSRFSGSGSGTDFTLTISSLQPEDFATYYCQQYYIYPYTFGQGTKVEIKGQPKAAPSVTLFPPSSEELQANKATLVCYISDFYPGAVTVAWKADSSPVKAGVETTTPSKQSNNKYAAWSYLSLTPEQWKSHRSYSCQVTHEGSTVEKTVAPTEC light 2: DIQMTQSPSSLSASVGDRVTITCSASSSVTYMYWYQRKPGKAPKLLIYDTSNLASGVPSRFSGSGSGTDYTFTISSLQPEDIATYYCQQWSSHIFTFGQGTKVEIKRTVAAPSVFIFPPSKEQLKSGTASVVCLLNNFYPREAKVQWKVDNALQSGNSQESVTEQDSKDSTYSLSSTLTLSKADYEKHKVYACEVTHQGLSSPVTKSFNRGEC EVQLVESGGGLVQPGGSLRLSCAASGYTFTSYWLHWVRQAPGKGLEWVGMIDPSNSDTRFNPNFKDRFTISADTSKNTAYLQMNSLRAEDTAVYYCATYRSYVTPLDYWGRGTLVTVSSASTKGPSVFPLAPSSKSTSGGTAALGCLVADYFPEPVTVSWNSGALTSGVHTFPAVLQSSGLYSLSSVVTVPSSSLGTQTYICNVNHKPSNTKVDERVEPKSC
3 | 15 nM | 0.0055 s⁻¹ | 360000 M⁻¹ s⁻¹ | 0.8 nM | 0.00022 s⁻¹ | 260000 M⁻¹ s⁻¹ | 0.77 nM | 0.00013 s⁻¹ | 170000 M⁻¹ s⁻¹ | HER-2 X EGFR X cMet TsAb_HHH (other, Tandem Fab trispecific antibody without Fc) heavy: EVQLVESGGGLVQPGGSLRLSCAASGFTFTDYTMDWVRKAPGKGLEWVADVNPNSGGSIYNQEFKGRFTLSVDRSKNTLYLQMNSLRAEDTAVYYCARNLGPSFYFDYWGQGTLVTVSSASTKGPSVFPLAPSSKSTSGGTAALGCLVKDYFPEPVTVSWNSGALTSGVATGPAVLQSSGLYSLSSVVTVPSSSLGTQTYICNVNHKPSNTKVDKKVEPKSCGGGGSGGGGSGGGGSQVQLVQSGAEVKKPGASVKVSCKASGYTFTSHWMHWVRYAPGQGLEWIGEFNPSNGRTNYNEKFKSKATMTVDTSTNTAYMELSSLRSEDTAVYYCASRDYDYDGRYFDYWGQGTLVTVSSASTKGPSVFPLAPCSKSTSGGTAALGCLVKDYFPEPVTVSWNSGALTSGVHTFPAVLQSSGLYSLSSVVTVPSSSLGTQTYICNVNHKPSNTKVDKKVEPDSGGGGGSGGGGSGGGGSEVQLVESGGGLVQPGGSLRLSCAASGYTFTSYWLHWVRQAPGKGLEWVGMIDPSNSDTRFNPNFKDRFTISADTSKNTAYLQMNSLRAEDTAVYYCATYRSYVTPLDYWGRGTLVTVSSASTKGPSVFPLAPSSKSTSGGTAALGCLVADYFPEPVTVSWNSGALTSGVHTFPAVLQSSGLYSLSSVVTVPSSSLGTQTYICNVNHKPSNTKVDERVEPKSCHHHHHHHH light 1: RIQMTQSPSSLSASVGDRVTITCKASQDVSIGVAWYQDKPGKAPKLLIYSASYRYTGVPSRFSGSGSGTDFTLTISSLQPEDFATYYCQQYYIYPYTFGQGTKVEIKGQPKAAPSVTLFPPSSEELQANKATLVCYISDFYPGAVTVAWKADSSPVKAGVETTTPSKQSNNKYAAWSYLSLTPEQWKSHRSYSCQVTHEGSTVEKTVAPTEC light 2: DIQMTQSPSSLSASVGDRVTITCSASSSVTYMYWYQRKPGKAPKLLIYDTSNLASGVPSRFSGSGSGTDYTFTISSLQPEDIATYYCQQWSSHIFTFGQGTKVEIKRTVAAPSVFIFPPSKEQLKSGTASVVCLLNNFYPREAKVQWKVDNALQSGNSQESVTEQDSKDSTYSLSSTLTLSKADYEKHKVYACEVTHQGLSSPVTKSFNRGEC light 3: DIQMTQSPSSLSASVGDRVTITCKSSQSLLYTSSQKNYLAWYQQKPGDAPKLLIYWASTRESGVPSRFSGSGSGTDFTLTISSLQPEDFATYYCQQYYAYPWTFGQGTKVEIKRTVAAPSVFIFPPSDKQLKSGTARVVCLLNNFYPREAKVQWKVDNALQSGNSQESVTEQDSKDSTYSLISTLTLSKADYEKHKVYACEVTHQGLSSPVTKSFNRGEC
